# Reference: article doi:10.1101/2020.10.30.362368 (bioRxiv, 2020)
# Key:
# SmcR WT = molecular target: T1, SmcR WT (Vibrio vulnificus, UniProt Q9L8G8 1-205); test: EMSA
# T1 sequence: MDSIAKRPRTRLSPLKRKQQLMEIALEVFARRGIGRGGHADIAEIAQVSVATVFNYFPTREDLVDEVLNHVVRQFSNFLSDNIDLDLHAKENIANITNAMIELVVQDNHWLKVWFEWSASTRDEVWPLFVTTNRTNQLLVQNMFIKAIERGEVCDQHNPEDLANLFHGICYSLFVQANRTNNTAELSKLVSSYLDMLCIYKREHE
# SmcR N55I = molecular target: T2, SmcR N55I (Vibrio vulnificus, UniProt Q9L8G8 1-205, N55I); test: EMSA
# T2 sequence: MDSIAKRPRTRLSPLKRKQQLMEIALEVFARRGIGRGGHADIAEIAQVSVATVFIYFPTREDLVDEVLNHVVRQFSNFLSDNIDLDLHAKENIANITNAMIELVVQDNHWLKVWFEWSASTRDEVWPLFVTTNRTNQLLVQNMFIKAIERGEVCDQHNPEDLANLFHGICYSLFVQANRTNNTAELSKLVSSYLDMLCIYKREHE
# [1] = molecular target: V. harveyi His-RNAP alpha (RNA polymerase alpha subunit) (Vibrio harveyi, UniProt A0A0B4IMU9 1-330); test: BLI
Binder,binding result (SmcR WT),binding result (SmcR N55I),Kd [1] [nM]
PluxC site E (site D mutated) (dsDNA) DNA 1: TTTGTTAAATGTTGCGCGTAATTATAAATAAATCAAACTATAATTAGATT DNA 2: AATCTAATTATAGTTTGATTTATTTATAATTACGCGCAACATTTAACAAA,binds,,
PluxC site D (site E mutated) (dsDNA) DNA 1: TTTGTTAAATGTTATGACTAATTATAAATAAATCAAACGCGCGTTAGATT DNA 2: AATCTAACGCGCGTTTGATTTATTTATAATTAGTCATAACATTTAACAAA,binds,,
PluxC site B (JDN55/JDN54) (dsDNA) DNA 1: TTACTTATTTATAGTGTTACAAATAACATTA DNA 2: TAATGTTATTTGTAACACTATAAATAAGTAA,binds,binds,
"SmcR wild-type, untagged (Vibrio vulnificus quorum-sensing transcription factor) (natural protein) MDSIAKRPRTRLSPLKRKQQLMEIALEVFARRGIGRGGHADIAEIAQVSVATVFNYFPTREDLVDEVLNHVVRQFSNFLSDNIDLDLHAKENIANITNAMIELVVQDNHWLKVWFEWSASTRDEVWPLFVTTNRTNQLLVQNMFIKAIERGEVCDQHNPEDLANLFHGICYSLFVQANRTNNTAELSKLVSSYLDMLCIYKREHE",,,142
"SmcR N55I, untagged (natural protein) MDSIAKRPRTRLSPLKRKQQLMEIALEVFARRGIGRGGHADIAEIAQVSVATVFIYFPTREDLVDEVLNHVVRQFSNFLSDNIDLDLHAKENIANITNAMIELVVQDNHWLKVWFEWSASTRDEVWPLFVTTNRTNQLLVQNMFIKAIERGEVCDQHNPEDLANLFHGICYSLFVQANRTNNTAELSKLVSSYLDMLCIYKREHE",,,160
